Here are results for one molecule from publication PMC3760020.

In this experiment the target is T1, GFP-p73α wild type, O15350.
T1 chain: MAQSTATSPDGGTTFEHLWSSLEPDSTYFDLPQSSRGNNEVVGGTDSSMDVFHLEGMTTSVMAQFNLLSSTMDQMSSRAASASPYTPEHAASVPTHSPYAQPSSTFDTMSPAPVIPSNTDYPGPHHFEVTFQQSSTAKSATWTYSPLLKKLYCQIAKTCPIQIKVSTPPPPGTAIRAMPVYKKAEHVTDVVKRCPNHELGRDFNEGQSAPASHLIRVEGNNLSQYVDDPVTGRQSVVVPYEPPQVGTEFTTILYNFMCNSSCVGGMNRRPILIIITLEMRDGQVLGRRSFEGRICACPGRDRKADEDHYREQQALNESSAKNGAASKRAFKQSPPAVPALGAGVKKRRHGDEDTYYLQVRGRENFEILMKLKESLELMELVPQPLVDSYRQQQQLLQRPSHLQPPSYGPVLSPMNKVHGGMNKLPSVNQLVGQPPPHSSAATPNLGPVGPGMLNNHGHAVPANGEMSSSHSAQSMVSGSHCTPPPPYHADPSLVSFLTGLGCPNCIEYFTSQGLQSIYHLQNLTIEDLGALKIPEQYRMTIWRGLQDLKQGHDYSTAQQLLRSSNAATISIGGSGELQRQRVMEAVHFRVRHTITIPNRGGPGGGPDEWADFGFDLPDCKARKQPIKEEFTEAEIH
As to the kind of experiment: cross-linking. The settings on record: remark: other sources report otherwise.

B1: GFP-p73α wild type, O15350-1 1-636 (natural protein)
chain: T1 chain
Usually stoichiometry N stands for the number of molecules, sites or subunits per partner or assembly. B1: the stoichiometry N stood at 4.
